Assay results taken from US20180155451A1 (published 2018).

T1: FcγRIIb, extracellular domain with C-terminal His tag (human, UniProt P31994 43-217)
T1 construct: extracellular domain; soluble receptor used as Biacore analyte; also called 2b; FcgRIIb
T1 sequence (looked up): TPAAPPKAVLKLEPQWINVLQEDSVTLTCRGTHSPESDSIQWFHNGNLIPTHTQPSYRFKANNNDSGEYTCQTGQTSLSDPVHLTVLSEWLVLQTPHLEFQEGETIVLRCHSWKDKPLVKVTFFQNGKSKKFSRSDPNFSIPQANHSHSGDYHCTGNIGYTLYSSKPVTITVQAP

T2: FcγRIIa R (FcγRIIa, allotype R, Arg at position 131), extracellular domain with C-terminal His tag (human, UniProt P12318 34-217)
T2 construct: extracellular domain; soluble receptor used as Biacore analyte; also called 2aR; FcgRIIa R
T2 sequence (looked up): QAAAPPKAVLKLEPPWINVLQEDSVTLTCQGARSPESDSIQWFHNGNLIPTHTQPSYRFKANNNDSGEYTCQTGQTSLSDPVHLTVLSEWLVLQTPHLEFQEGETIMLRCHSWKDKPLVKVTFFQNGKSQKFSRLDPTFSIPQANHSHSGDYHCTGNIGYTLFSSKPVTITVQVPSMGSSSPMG


Key:
[1] = molecular target: T1, FcγRIIb, extracellular domain with …; assay: Biacore SPR; binding relative to GpH7-A5/GpH7-B3/GpL16-k0 (=100)
Description: (§1) The heterodimerized antibodies He Abs in which one of the H chains was introduced with an alteration were assayed for their binding activities to each activating FcγR and inhibitory FcγR according to the method described in Example 4. […] The activating FcγRs in FIGS. 26, 27, 28, and 29 are FcγRIa, FcγRIIa (R), FcγRIIa (H), and FcγRIIIa, respectively.
(§2) Analysis of interaction between objective antibody and the FcγR was carried out using Biacore T100 (GE Healthcare). HBS-EP+ (GE Healthcare) was used as the running buffer, and the measurement temperature was set to 25° C. Chips produced by immobilizing the antigen peptide by the amine coupling method to a Series S Sencor Chip CM5 (GE Healthcare), or alternatively, chips produced by allowing preliminarily biotinylated antigen peptides to interact with and immobilize onto a Series S Sensor Chip SA (certified) (GE Healthcare) were used. Antibodies of interest were captured onto an antigen peptide-immobilized chip, and allowed to interact to each FcγR diluted with running buffer. To regenerate and repeatedly use the chip, the antibodies captured on the chip were washed off by reacting 10 mM glycine-HCl, pH 1.5.

[2] = molecular target: T2, FcγRIIa R (FcγRIIa, allotype R, Arg at …); assay: as above
Description: as §1, §2

[3] = molecular target: T2, FcγRIIa R (FcγRIIa, allotype R, Arg at …); assay: Biacore SPR; He/Con_2aR divided by He/Con_2b (FcγRIIb)
Description: as §1, §2

Binder | He/Con_2b (IIb binding) [1] | He/Con_2aR (IIaR binding) [2] | IIaR/IIb (He_2aR/2b) [3]
heterodimerized antibody GpH7-A5/GpH7-B3 variant K326_10E/GpL16-k0 (antibody, human IgG1, kappa, He Ab: anti-glypican-3 IgG1, alteration in one H chain only; also called He Ab) heavy 1: not shown heavy 2: not shown light: DIVMTQSPLSLPVTPGEPASISCQASESLVHSNRNTYLHWYLQKPGQSPQLLIYKVSNRFSGVPDRFSGSGSGTDFTLKISRVEAEDVGVYYCSQNTHVPPTFGQGTKVEIERTVAAPSVFIFPPSDEQLKSGTASVVCLLNNFYPREAKVQWKVDNALQSGNSQESVTEQDSKDSTYSLSSTLTLSKADYEKHKVYACEVTHQGLSSPVTKSFNRGEC | 200 % of control | 148 % of control | 0.74
heterodimerized antibody GpH7-A5/GpH7-B3 variant H268_02A/GpL16-k0 (antibody, human IgG1, kappa, He Ab: anti-glypican-3 IgG1, alteration in one H chain only; also called He Ab) heavy 1: not shown heavy 2: not shown light: DIVMTQSPLSLPVTPGEPASISCQASESLVHSNRNTYLHWYLQKPGQSPQLLIYKVSNRFSGVPDRFSGSGSGTDFTLKISRVEAEDVGVYYCSQNTHVPPTFGQGTKVEIERTVAAPSVFIFPPSDEQLKSGTASVVCLLNNFYPREAKVQWKVDNALQSGNSQESVTEQDSKDSTYSLSSTLTLSKADYEKHKVYACEVTHQGLSSPVTKSFNRGEC | 167 % of control | 133 % of control | 0.8
heterodimerized antibody GpH7-A5/GpH7-B3 variant L328_09D/GpL16-k0 (antibody, human IgG1, kappa, He Ab: anti-glypican-3 IgG1, alteration in one H chain only; also called He Ab) heavy 1: not shown heavy 2: not shown light: DIVMTQSPLSLPVTPGEPASISCQASESLVHSNRNTYLHWYLQKPGQSPQLLIYKVSNRFSGVPDRFSGSGSGTDFTLKISRVEAEDVGVYYCSQNTHVPPTFGQGTKVEIERTVAAPSVFIFPPSDEQLKSGTASVVCLLNNFYPREAKVQWKVDNALQSGNSQESVTEQDSKDSTYSLSSTLTLSKADYEKHKVYACEVTHQGLSSPVTKSFNRGEC | 199 % of control | 119 % of control | 0.6
heterodimerized antibody GpH7-A5/GpH7-B3 variant H268_09D/GpL16-k0 (antibody, human IgG1, kappa, He Ab: anti-glypican-3 IgG1, alteration in one H chain only; also called He Ab) heavy 1: not shown heavy 2: not shown light: DIVMTQSPLSLPVTPGEPASISCQASESLVHSNRNTYLHWYLQKPGQSPQLLIYKVSNRFSGVPDRFSGSGSGTDFTLKISRVEAEDVGVYYCSQNTHVPPTFGQGTKVEIERTVAAPSVFIFPPSDEQLKSGTASVVCLLNNFYPREAKVQWKVDNALQSGNSQESVTEQDSKDSTYSLSSTLTLSKADYEKHKVYACEVTHQGLSSPVTKSFNRGEC | 239 % of control | 149 % of control | 0.62
heterodimerized antibody GpH7-A5/GpH7-B3 variant H268_10E/GpL16-k0 (antibody, human IgG1, kappa, He Ab: anti-glypican-3 IgG1, alteration in one H chain only; also called He Ab) heavy 1: not shown heavy 2: not shown light: DIVMTQSPLSLPVTPGEPASISCQASESLVHSNRNTYLHWYLQKPGQSPQLLIYKVSNRFSGVPDRFSGSGSGTDFTLKISRVEAEDVGVYYCSQNTHVPPTFGQGTKVEIERTVAAPSVFIFPPSDEQLKSGTASVVCLLNNFYPREAKVQWKVDNALQSGNSQESVTEQDSKDSTYSLSSTLTLSKADYEKHKVYACEVTHQGLSSPVTKSFNRGEC | 230 % of control | 148 % of control | 0.64
heterodimerized antibody GpH7-A5/GpH7-B3 variant K326_09D/GpL16-k0 (antibody, human IgG1, kappa, He Ab: anti-glypican-3 IgG1, alteration in one H chain only; also called He Ab) heavy 1: not shown heavy 2: not shown light: DIVMTQSPLSLPVTPGEPASISCQASESLVHSNRNTYLHWYLQKPGQSPQLLIYKVSNRFSGVPDRFSGSGSGTDFTLKISRVEAEDVGVYYCSQNTHVPPTFGQGTKVEIERTVAAPSVFIFPPSDEQLKSGTASVVCLLNNFYPREAKVQWKVDNALQSGNSQESVTEQDSKDSTYSLSSTLTLSKADYEKHKVYACEVTHQGLSSPVTKSFNRGEC | 193 % of control | 148 % of control | 0.77
heterodimerized antibody GpH7-A5/GpH7-B3 variant K326_08L/GpL16-k0 (antibody, human IgG1, kappa, He Ab: anti-glypican-3 IgG1, alteration in one H chain only; also called He Ab) heavy 1: not shown heavy 2: not shown light: DIVMTQSPLSLPVTPGEPASISCQASESLVHSNRNTYLHWYLQKPGQSPQLLIYKVSNRFSGVPDRFSGSGSGTDFTLKISRVEAEDVGVYYCSQNTHVPPTFGQGTKVEIERTVAAPSVFIFPPSDEQLKSGTASVVCLLNNFYPREAKVQWKVDNALQSGNSQESVTEQDSKDSTYSLSSTLTLSKADYEKHKVYACEVTHQGLSSPVTKSFNRGEC | 177 % of control | 137 % of control | 0.77
heterodimerized antibody GpH7-A5/GpH7-B3 variant L328_07I/GpL16-k0 (antibody, human IgG1, kappa, He Ab: anti-glypican-3 IgG1, alteration in one H chain only; also called He Ab) heavy 1: not shown heavy 2: not shown light: DIVMTQSPLSLPVTPGEPASISCQASESLVHSNRNTYLHWYLQKPGQSPQLLIYKVSNRFSGVPDRFSGSGSGTDFTLKISRVEAEDVGVYYCSQNTHVPPTFGQGTKVEIERTVAAPSVFIFPPSDEQLKSGTASVVCLLNNFYPREAKVQWKVDNALQSGNSQESVTEQDSKDSTYSLSSTLTLSKADYEKHKVYACEVTHQGLSSPVTKSFNRGEC | 160 % of control | 124 % of control | 0.78
heterodimerized antibody GpH7-A5/GpH7-B3 variant K326_07I/GpL16-k0 (antibody, human IgG1, kappa, He Ab: anti-glypican-3 IgG1, alteration in one H chain only; also called He Ab) heavy 1: not shown heavy 2: not shown light: DIVMTQSPLSLPVTPGEPASISCQASESLVHSNRNTYLHWYLQKPGQSPQLLIYKVSNRFSGVPDRFSGSGSGTDFTLKISRVEAEDVGVYYCSQNTHVPPTFGQGTKVEIERTVAAPSVFIFPPSDEQLKSGTASVVCLLNNFYPREAKVQWKVDNALQSGNSQESVTEQDSKDSTYSLSSTLTLSKADYEKHKVYACEVTHQGLSSPVTKSFNRGEC | 199 % of control | 147 % of control | 0.74

Second part, the binder after the results:

He/Con_2b (IIb binding) [1] | He/Con_2aR (IIaR binding) [2] | IIaR/IIb (He_2aR/2b) [3] | Binder
193 % of control | 138 % of control | 0.71 | heterodimerized antibody GpH7-A5/GpH7-B3 variant G237_20W/GpL16-k0 (antibody, human IgG1, kappa, He Ab: anti-glypican-3 IgG1, alteration in one H chain only; also called He Ab) heavy 1: not shown heavy 2: not shown light: DIVMTQSPLSLPVTPGEPASISCQASESLVHSNRNTYLHWYLQKPGQSPQLLIYKVSNRFSGVPDRFSGSGSGTDFTLKISRVEAEDVGVYYCSQNTHVPPTFGQGTKVEIERTVAAPSVFIFPPSDEQLKSGTASVVCLLNNFYPREAKVQWKVDNALQSGNSQESVTEQDSKDSTYSLSSTLTLSKADYEKHKVYACEVTHQGLSSPVTKSFNRGEC
172 % of control | 105 % of control | 0.61 | heterodimerized antibody GpH7-A5/GpH7-B3 variant L328_10E/GpL16-k0 (antibody, human IgG1, kappa, He Ab: anti-glypican-3 IgG1, alteration in one H chain only; also called He Ab) heavy 1: not shown heavy 2: not shown light: DIVMTQSPLSLPVTPGEPASISCQASESLVHSNRNTYLHWYLQKPGQSPQLLIYKVSNRFSGVPDRFSGSGSGTDFTLKISRVEAEDVGVYYCSQNTHVPPTFGQGTKVEIERTVAAPSVFIFPPSDEQLKSGTASVVCLLNNFYPREAKVQWKVDNALQSGNSQESVTEQDSKDSTYSLSSTLTLSKADYEKHKVYACEVTHQGLSSPVTKSFNRGEC
219 % of control | 138 % of control | 0.63 | heterodimerized antibody GpH7-A5/GpH7-B3 variant L328_04F/GpL16-k0 (antibody, human IgG1, kappa, He Ab: anti-glypican-3 IgG1, alteration in one H chain only; also called He Ab) heavy 1: not shown heavy 2: not shown light: DIVMTQSPLSLPVTPGEPASISCQASESLVHSNRNTYLHWYLQKPGQSPQLLIYKVSNRFSGVPDRFSGSGSGTDFTLKISRVEAEDVGVYYCSQNTHVPPTFGQGTKVEIERTVAAPSVFIFPPSDEQLKSGTASVVCLLNNFYPREAKVQWKVDNALQSGNSQESVTEQDSKDSTYSLSSTLTLSKADYEKHKVYACEVTHQGLSSPVTKSFNRGEC
217 % of control | 152 % of control | 0.7 | heterodimerized antibody GpH7-A5/GpH7-B3 variant N325_06M/GpL16-k0 (antibody, human IgG1, kappa, He Ab: anti-glypican-3 IgG1, alteration in one H chain only; also called He Ab) heavy 1: not shown heavy 2: not shown light: DIVMTQSPLSLPVTPGEPASISCQASESLVHSNRNTYLHWYLQKPGQSPQLLIYKVSNRFSGVPDRFSGSGSGTDFTLKISRVEAEDVGVYYCSQNTHVPPTFGQGTKVEIERTVAAPSVFIFPPSDEQLKSGTASVVCLLNNFYPREAKVQWKVDNALQSGNSQESVTEQDSKDSTYSLSSTLTLSKADYEKHKVYACEVTHQGLSSPVTKSFNRGEC
197 % of control | 144 % of control | 0.73 | heterodimerized antibody GpH7-A5/GpH7-B3 variant N325_08L/GpL16-k0 (antibody, human IgG1, kappa, He Ab: anti-glypican-3 IgG1, alteration in one H chain only; also called He Ab) heavy 1: not shown heavy 2: not shown light: DIVMTQSPLSLPVTPGEPASISCQASESLVHSNRNTYLHWYLQKPGQSPQLLIYKVSNRFSGVPDRFSGSGSGTDFTLKISRVEAEDVGVYYCSQNTHVPPTFGQGTKVEIERTVAAPSVFIFPPSDEQLKSGTASVVCLLNNFYPREAKVQWKVDNALQSGNSQESVTEQDSKDSTYSLSSTLTLSKADYEKHKVYACEVTHQGLSSPVTKSFNRGEC
160 % of control | 127 % of control | 0.8 | heterodimerized antibody GpH7-A5/GpH7-B3 variant H268_13S/GpL16-k0 (antibody, human IgG1, kappa, He Ab: anti-glypican-3 IgG1, alteration in one H chain only; also called He Ab) heavy 1: not shown heavy 2: not shown light: DIVMTQSPLSLPVTPGEPASISCQASESLVHSNRNTYLHWYLQKPGQSPQLLIYKVSNRFSGVPDRFSGSGSGTDFTLKISRVEAEDVGVYYCSQNTHVPPTFGQGTKVEIERTVAAPSVFIFPPSDEQLKSGTASVVCLLNNFYPREAKVQWKVDNALQSGNSQESVTEQDSKDSTYSLSSTLTLSKADYEKHKVYACEVTHQGLSSPVTKSFNRGEC
171 % of control | 133 % of control | 0.78 | heterodimerized antibody GpH7-A5/GpH7-B3 variant N325_07I/GpL16-k0 (antibody, human IgG1, kappa, He Ab: anti-glypican-3 IgG1, alteration in one H chain only; also called He Ab) heavy 1: not shown heavy 2: not shown light: DIVMTQSPLSLPVTPGEPASISCQASESLVHSNRNTYLHWYLQKPGQSPQLLIYKVSNRFSGVPDRFSGSGSGTDFTLKISRVEAEDVGVYYCSQNTHVPPTFGQGTKVEIERTVAAPSVFIFPPSDEQLKSGTASVVCLLNNFYPREAKVQWKVDNALQSGNSQESVTEQDSKDSTYSLSSTLTLSKADYEKHKVYACEVTHQGLSSPVTKSFNRGEC
